In this assay the target is Flag-CCDC74B wild-type (in HeLa cells) (human). The experiment in a line: cross-linking; HeLa cells expressing Flag-CCDC74B treated with 1 mM disuccinimidyl suberate (DSS) in DMSO for 30 min; anti-Flag Western blot.

For “Flag-CCDC74B wild-type (in HeLa cells) (natural protein)”, the stoichiometry N (usually a count of units in the complex or per binding partner) turned out to be 2.

(Values after article PMC6744678.)
